Measured values: patent US7659073

Row | Substance | relative rate of pPSA activation by hK2 (HIC-HPLC) ([-2]pPSA) | relative rate of pPSA activation by hK2 (HIC-HPLC) ([-4]pPSA) | relative rate of pPSA activation by hK2 (HIC-HPLC) ([-5]pPSA) | relative rate of pPSA activation by hK2 (HIC-HPLC) ([-7]pPSA) | cleavage of the pro leader by trypsin (N-terminal sequencing) ([-2]pPSA)
1 | human kallikrein 2 (hK2) | [-2]pPSA was not activated by hK2 | the [-4]pPSA was activated more slowly | The [5/-7]pPSA was activated most rapidly | The [5/-7]pPSA was activated most rapidly | –
2 | trypsin | – | – | – | – | there was little or no cleavage to release the SR dipeptide of the [-2]pPSA (data not shown)
